Legend:
SBS 30888 ZFN = assay: cell_activity; conditions: paired with 30886 in G2019S heterozygous patient iPSC; pair more specific for G2019S mutant; value is % clones with monoallelic NHEJ (17% biallelic NHEJ)
SBS 30886 ZFN = assay: cell_activity; conditions: paired with 30888 in G2019S heterozygous patient iPSC; value is % clones with monoallelic NHEJ (17% biallelic NHEJ)

| Sequence | activity (SBS 30888 ZFN) [%] | activity (SBS 30886 ZFN) [%] |
| --- | --- | --- |
| GCAAAGATTGCTGACTACAGCATTGCTC (double strand) [LRRK2 6055G>A (G2019S) target of 30888] | 46 |  |
| TGATGGCAGCATTGGGATACAGTGTGAA (double strand) [LRRK2 target of 27865/27866/27867/27868/30886] |  | 46 |

Reference: US20120214241
